These results are taken from the supplement of paper PMC5998384.

Data set [1] has as its system HeLa Kyoto. In words: thermal stability score vs G1/S (z-score of summed log2 fold changes over temperatures); higher = more thermally stable than in G1/S.
For data set [2], the system named is HeLa Kyoto. The experiment in a line: solubility in G1/S (NP-40 vs SDS abundance) (log2 ratio); higher = more soluble. Particulars: cell cycle stage: G1/S.
Data set [3] relates to HeLa Kyoto. In words: solubility change mitosis vs G1/S (difference of NP-40 vs SDS log2 ratios) (log2 ratio difference); higher = more soluble in mitosis.
Where [4] appears, read: cell cycle stage: early G1 (4.5 h after nocodazole release).
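Wherever solubility change mitosis vs G1/S (difference of NP-40 vs SDS log2 ratios) is given: synchronized HeLa Kyoto cells (double thymidine block for G1/S, nocodazole release for mitosis), protein amounts in NP-40 versus SDS lysates quantified by mass spectrometry, three biological replicates.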
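Wherever solubility in G1/S (NP-40 vs SDS abundance) is given: HeLa Kyoto cells arrested at G1/S by double thymidine block, proteins quantified by TMT10plex mass spectrometry in mild NP-40 versus SDS extracts, three biological replicates.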
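Wherever thermal stability score vs G1/S (z-score of summed log2 fold changes over temperatures) is given: synchronized HeLa Kyoto cells, proteins quantified by TMT10plex mass spectrometry, three biological replicates, mitosis taken 0.5 h after nocodazole release, G1/S directly after double thymidine block.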

For the sequence “MLRGPWRQLWLFFLLLLPGAPEPRGASRPWEGTDEPGSAWAWPGFQRLQEQLRAAGALSKRYWTLFSCQVWPDDCDEDEEAATGPLGWRLPLLGQRYLDLLTTWYCSFKDCCPRGDCRISNNFTGLEWDLNVRLHGQHLVQQLVLRTVRGYLETPQPEKALALSFHGWSGTGKNFVARMLVENLYRDGLMSDCVRMFIATFHFPHPKYVDLYKEQLMSQIRETQQLCHQTLFIFDEAEKLHPGLLEVLGPHLERRAPEGHRAESPWTIFLFLSNLRGDIINEVVLKLLKAGWSREEITMEHLEPHLQAEIVETIDNGFGHSRLVKENLIDYFIPFLPLEYRHVRLCARDAFLSQELLYKEETLDEIAQMMVYVPKEEQLFSSQGCKSISQRINYFLS [TOR3A]”, the thermal stability score worked out at 2.36 in the data set on HeLa Kyoto [1] (setting [4]) and 1.03 with HeLa Kyoto [1] (cell cycle stage: mitosis). For the same sequence, the “solubility in G1/S (log2)” value in the data set on HeLa Kyoto [2] was determined as 0.0484. Moreover, the “solubility change mitosis (log2)” value in the data set on HeLa Kyoto [3] was -0.118.

On to “MGKMAAAVGSVATLATEPGEDAFRKLFRFYRQSRPGTADLEGVIDFSAAHAARGKGPGAQKVIKSQLNVSSVSEQNAYRAGLQPVSKWQAYGLKGYPGFIFIPNPFLPGYQWHWVKQCLKLYSQKPNVCNLDKHMSKEETQDLWEQSKEFLRYKEATKRRPRSLLEKLRWVTVGYHYNWDSKKYSADHYTPFPSDLGFLSEQVAAACGFEDFRAEAGILNYYRLDSTLGIHVDRSELDHSKPLLSFSFGQSAIFLLGGLQRDEAPTAMFMHSGDIMIMSGFSRLLNHAVPRVLPNPEGEGLPHCLEAPLPAVLPRDSMVEPCSMEDWQVCASYLKTARVNMTVRQVLATDQNFPLEPIEDEKRDISTEGFCHLDDQNSEVKRARINPDS [ALKBH1]”, for which the thermal stability score in the data set with HeLa Kyoto [1] (setting [4]) was -0.273; in the data set on HeLa Kyoto [1] (cell cycle stage: mitosis), 0.558. For the same sequence, the “solubility in G1/S (log2)” value with HeLa Kyoto [2] amounted to 0.0175. Further, the “solubility change mitosis (log2)” value in the data set on HeLa Kyoto [3] is -0.0399.

As for “MKCEHCTRKECSKKTKTDDQENVSADAPSPAQENGEKGEFHKLADAKIFLSDCLACDSCMTAEEGVQLSQQNAKDFFRVLNLNKKCDTSKHKVLVVSVCPQSLPYFAAKFNLSVTDASRRLCGFLKSLGVHYVFDTTIAADFSILESQKEFVRRYRQHSEEERTLPMLTSACPGWVRYAERVLGRPITAHLCTAKSPQQVMGSLVKDYFARQQNLSPEKIFHVIVAPCYDKKLEALQESLPPALHGSRGADCVLTSGEIAQIMEQGDLSVRDAAVDTLFGDLKEDKVTRHDGASSDGHLAHIFRHAAKELFNEDVEEVTYRALRNKDFQEVTLEKNGEVVLRFAAAYGFRNIQNMILKLKKGKFPFHFVEVLACAGGCLNGRGQAQTPDGHADKALLRQMEGIYADIPVRRPESSAHVQELYQEWLEGINSPKAREVLHTTYQSQERGTHSLDIKW [NARF]”, the thermal stability score with HeLa Kyoto [1] (setting [4]) is -0.279; with HeLa Kyoto [1] (cell cycle stage: mitosis), -0.0946. The “solubility in G1/S (log2)” value with HeLa Kyoto [2] turned out to be 0.474. Further, in the data set with HeLa Kyoto [3], the “solubility change mitosis (log2)” value was -0.273.

“MELRARGWWLLCAAAALVACARGDPASKSRSCGEVRQIYGAKGFSLSDVPQAEISGEHLRICPQGYTCCTSEMEENLANRSHAELETALRDSSRVLQAMLATQLRSFDDHFQHLLNDSERTLQATFPGAFGELYTQNARAFRDLYSELRLYYRGANLHLEETLAEFWARLLERLFKQLHPQLLLPDDYLDCLGKQAEALRPFGEAPRELRLRATRAFVAARSFVQGLGVASDVVRKVAQVPLGPECSRAVMKLVYCAHCLGVPGARPCPDYCRNVLKGCLANQADLDAEWRNLLDSMVLITDKFWGTSGVESVIGSVHTWLAEAINALQDNRDTLTAKVIQGCGNPKVNPQGPGPEEKRRRGKLAPRERPPSGTLEKLVSEAKAQLRDVQDFWISLPGTLCSEKMALSTASDDRCWNGMARGRYLPEVMGDGLANQINNPEVEVDITKPDMTIRQQIMQLKIMTNRLRSAYNGNDVDFQDASDDGSGSGSGDGCLDDLCSRKVSRKSSSSRTPLTHALPGLSEQEGQKTSAASCPQPPTFLLPLLLFLALTVARPRWR [GPC1]”: the thermal stability score in the data set on HeLa Kyoto [1] (setting [4]) is 1.52; in the data set with HeLa Kyoto [1] (cell cycle stage: mitosis) it was 3.51. In the data set with HeLa Kyoto [2], the “solubility in G1/S (log2)” value was -0.193. Moreover, in the data set on HeLa Kyoto [3], the “solubility change mitosis (log2)” value was -0.378.

Consider “MEQAPPDPERQLQPAPLEPLGSPDAGLGAAVGKEAEGAGEESSGVDTMTHNNFWLKKIEISVSEAEKRTGRNAMNMQETYTAYLIETRSVEHTDGQSVLTDSLWRRYSEFELLRSYLLVYYPHIVVPPLPEKRAEFVWHKLSADNMDPDFVERRRIGLENFLLRIASHPILCRDKIFYLFLTQEGNWKETVNETGFQLKADSRLKALNATFRVKNPDKRFTDLKHYSDELQSVISHLLRVRARVADRLYGVYKVHGNYGRVFSEWSAIEKEMGDGLQSAGHHMDVYASSIDDILEDEEHYADQLKEYLFYAEALRAVCRKHELMQYDLEMAAQDLASKKQQCEELVTGTVRTFSLKGMTTKLFGQETPEQREARIKVLEEQINEGEQQLKSKNLEGREFVKNAWADIERFKEQKNRDLKEALISYAVMQISMCKKGIQVWTNAKECFSKM [SNX4]”, for which the figures for the thermal stability score with HeLa Kyoto [1] (setting [4]) and in the data set with HeLa Kyoto [1] (cell cycle stage: mitosis) were 0.919 and 0.324, respectively. Besides, the “solubility in G1/S (log2)” value in the data set on HeLa Kyoto [2] worked out at 0.0889. Also, the “solubility change mitosis (log2)” value with HeLa Kyoto [3] is -0.0064.

On to “MAGKAAAPGTAVLLVTANVGSLFDDPENLQKNWLREFYQVVHTHKPHFMALHCQEFGGKNYEASMSHVDKFVKELLSSDAMKEYNRARVYLDENYKSQEHFTALGSFYFLHESLKNIYQFDFKAKKYRKVAGKEIYSDTLESTPMLEKEKFPQDYFPECKWSRKGFIRTRWCIADCAFDLVNIHLFHDASNLVAWETSPSVYSGIRHKALGYVLDRIIDQRFEKVSYFVFGDFNFRLDSKSVVETLCTKATMQTVRAADTNEVVKLIFRESDNDRKVMLQLEKKLFDYFNQEVFRDNNGTALLEFDKELSVFKDRLYELDISFPPSYPYSEDARQGEQYMNTRCPAWCDRILMSPSAKELVLRSESEEKVVTYDHIGPNVCMGDHKPVFLAFRIMPGAGKPHAHVHKCCVVQ [INPP5A]”, for which the results for the thermal stability score in the data set on HeLa Kyoto [1] (setting [4]) and in the data set with HeLa Kyoto [1] (cell cycle stage: mitosis) were 0.56 and -0.257, respectively. The “solubility in G1/S (log2)” value in the data set on HeLa Kyoto [2] is -0.359. In the data set with HeLa Kyoto [3], the “solubility change mitosis (log2)” value was -0.17.
